Experimental findings from US20220133732A1 (Bicycle, published 2022) are described below.

*1 amine or outer side, *2 acyl side, *3 side chain or, on linkers, in order; H or OH if unused. Bridges are numbered along the chain shown (N, C = ends). Where no end group is shown, it is not given here. TBMB = c1c(C[*:1])cc(C[*:3])cc1C[*:2]

By Ki is commonly meant a measure of affinity in units of concentration, obtained from inhibition or displacement. A low value points to tighter binding.

For assay [1], the target named is T1, human carbonic anhydrase IX (CAIX) (human, UniProt Q16790 38-414). Kind of assay: competition fluorescence polarisation, tracer A-(SEQ ID NO:1)-A-Sar6-K(FI); n = 1.
Assay [2] has as its target T1, human carbonic anhydrase IX (CAIX). Kind of assay: competition fluorescence polarisation, tracer A-(SEQ ID NO:1)-A-Sar6-K(FI). In general terms: Polarisation of emitted light reports the rotation of a fluorescent probe.
Assay [3] shares this target. Kind of assay: cell-based or functional assay.

B1: 61-18-N001 (peptide)
peptide: ACWWCEDITGRPCA
modifications: linker 2-5-13 via TBMB
notes: Bicyclic peptide on TBMB scaffold
With B1, the affinity in assay [1] corresponds to a Ki of 312 nM.

B2: 61-01-01-N001 (peptide)
peptide: ACGECWADGWVPCA
modifications: linker 2-5-13 via TBMB
notes: as for B1
In assay [2], B2 showed a Ki of 81.5 nM.

B3: 61-01-03-N001 (peptide)
peptide: ACSECWVDGWVSCA
modifications: linker 2-5-13 via TBMB
notes: as for B1
As to B3, affinity in assay [2] was put at a Ki of 22.7 nM.

B4: 61-01-09-N001 (peptide)
peptide: ACGECWVDGWVSCA
modifications: linker 2-5-13 via TBMB
notes: as for B1
Consider B4, for which the Ki in assay [1] amounted to 39.8 nM.

B5: 61-01-08-N001 (peptide)
peptide: ACRECWVDGWVECA
modifications: linker 2-5-13 via TBMB
notes: as for B1
Consider B5, for which, in assay [1], affinity was put at a Ki of 5.6 nM.

B6: 61-01-02-N001 (peptide)
peptide: ACTECWVDGWVPCA
modifications: linker 2-5-13 via TBMB
notes: as for B1
As to B6, the “Enzyme IC50” value in assay [3] came to 815 nM. This molecule also registered a Ki in assay [2] of 7.13 nM.

B7: 61-01-04-N001 (peptide)
peptide: ACLECWVDGWVPCA
modifications: linker 2-5-13 via TBMB
notes: as for B1
As for B7, in assay [3], the “Enzyme IC50” value stood at 855 nM. In addition, the Ki in assay [2] came out at 5.77 nM.

B8: 61-01-07-N001 (peptide)
peptide: ACTECWIDGWVPCA
modifications: linker 2-5-13 via TBMB
notes: as for B1
Take B8: the Ki in assay [2] turned out to be 7.9 nM.

B9: 61-01-05-N001 (peptide)
peptide: ACEECWVDGWVPCA
modifications: linker 2-5-13 via TBMB
notes: as for B1
Consider B9, for which the Ki in assay [1] turned out to be 12.2 nM.
